Laboratory results as given in the nanobody polyreactivity screen of Harvey et al. (2022).

Assay: yeast display, Sf9 membrane polyspecificity reagent, FACS + sequencing; frameworks hold sequencing errors
In short: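 A nanobody's polyreactivity label depends on the gate it was sorted from. Yeast display cells were stained with 10% biotinylated, detergent-solubilized Sf9 membrane reagent for 1 hour at 4 °C, enriched on streptavidin microbeads and sorted by FACS. The low and high (top ~1%) gates were set on anti-HA fluorescence for expression and streptavidin fluorescence for reagent binding.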

Sequence | polyreactivity (PSR sort gate)
QVQLVESGGGLVQAGGSLRLSSAASGRTFGWNSMGWYRHAPGKERELVAAISRTGNTYYADSVKGRFTISRDNAKNTVYLQMNSLKPEDTAVYYCAKGRYYTPTYFRGVDLYDYWGQGTQVTVSS | low polyreactivity
QVQLVESGGGLVQAGGSLRLSCAASGSTFTWNAMGWYRQAPGTERELVAAITSGGRTYYADSVKGRFTISRDNAKNTVYLQMNSLKPEDTAVYYCAAKVRQYYSACNYYYWGQVTQVTVSS | high polyreactivity
QVQLVESGGGLVQAGGSLRLSCAASGRTFRYYAMGWYRQAPGKESELVAAIRTRGASTYYADSVKGRFTISRDNAKNTVYLQMNSLKPEDTAVYYCAKRAHFSSARHVYYIYDYWGQGTQVTVSS | low polyreactivity
QVQLVESGRGLVQAGGSLRISSAASGFIYRYYAMGWYRQAPGKERELVAAINTGGTTYYADSVKGRFTISRDNAKNTVYFQMNSLKPEDTAVYYCAKRWPRSSLGDYWGQGTQVTVSS | high polyreactivity
QVQLVDSGGGLVQAGGTLRLSCAASGRIFYRYAMGWYRQAPGKERELVASITRSGITHYADSVKGRFTISRDNAKNTVYLQMNSLKPEDTAVYYCKARRGSPAPYDYWGQGTQVTVSS | high polyreactivity
QVPLVESGGGLVQAGGSLRLSCAASGSTLTSNAMGWYRQAPGKERELVAAIRSGGSTNYADSVKGRFTISRDNAKNTVYLQMNSLKPEDTAVYYCNTDFLWQGYGYSRVSYDYWGQGTQVTVSS | low polyreactivity
QVQLVESGGGLVQAGGSLRLSCAASGRTFDYNAMGWYRQAPGKEREMVAAISSSGGSTYYADSVKGRFTISRDNAKNTVYLQMNSLKPEDTAVYYCATLYPRISIYYYWGQGTQVTVSS | high polyreactivity
QVQLVESGGGLVQAGGSLRLSCAASGSIFGKYAMGWYRQAPGKERELVAAISERTGRTYYADSVKGRFTISRDNAKNTVYLQMNSLKPEDTAVYYCNVGPLYSGWSTYGYDYWGQGTQVTVSS | high polyreactivity
QVQLVESVGGLDQAGGTLRLSCAASGSTFKYNGMGWYRQAPGKERELVAAISWRAGSTYADSVKGRFTISRDNAKNTVYLLMYSLKPEDTEVYYCAARLKYWGDYYYWGQGTQVTVSS | low polyreactivity
QYQLVESGGGLVQAGGSLRLSCAASGSTFRYYAMGWYRQAPGKETELVAAISTRGGTTYYADSVKGRFTISRDNAKNTVYLQMNSLKPEDTAVYYCAAEALVPLIYYYWGQGTQVTVSS | low polyreactivity
QVQLVESGGGLVQAGGSLRLSCAASGRIFKYYAKGWYIQAPGKERELVAAINRDGGRTYYADSVKGRFTISRDNAKNTVYLQMNSLKPEDTAVYYCAASYGYVYTTSLDYWGQGTQVTVSS | low polyreactivity
QVQLVESGGGLVQAGGSLRLSCAASGRTFYYYAMGWYRQAPGKEREFVAAISWSGVRTSYADSVKGRFTISRDNAKNTVYLQMNSQKPEDTAVYYCNVAVAFYYDYWYSTYLTYEYDYWGQGTQVTVSS | high polyreactivity
QVQLVESGGGLVQAGGSLRLSCAASGGTFRKNAMGWYRQAPGKERELVAAITKSGGSTYYADSVKGRFTISRDNAKNTVYLQMNSLKPEDTAVYYCNTYPGSTQPPYDYWGQGTQVTVSS | low polyreactivity
QVQLVESGGGLVQAGGSLRLSCAASGITFINYDMGWYRQAPGKERELVAAISQIGTSTYYADSVKGRCTISRDNAKNTVYLQMNSLKPEDTAVYYCNARYISTGFRYNYWGQGTQVTVSS | high polyreactivity
QVQLVESGGGLFQAGGSLRLSCAASGSIFTPNTMGWYRKAPGKERELVAAITIRGGSTYYADSLKGRFTISRDNAKNTVYLQMNSLKPEDTAVYYCATEYALRYYLVDYWGQGTQVTVSS | low polyreactivity
QVQLVESGGGLVQAGGSLRLSCAASGFTFYKNAMGWYRQAPGKERELVAAITRRGSRTYYADSVKGRFTISRDNAKNTVYLQMNSLKPEDTAVYYCAADDGSDAEYYYWGQGTQVTVSS | high polyreactivity

Sequence | polyreactivity (PSR sort gate)
QVQLVESGGGLVQAGGSLRLSCAASGSIFTWYAMGWYRQAPGKERELVAAITTSGGSTYYADSVKGRFTISRDNAKNTVYLQMNSLKPEDTAVYYCAKDGDYLFYYYGYDYWGQGTQVTVSS | low polyreactivity
QVQLVESGGGLVQAGGSLRLSCAASVSIFFSYAMGWYRQAPGKERELVASITWSGDTTYYADSVKGRFTISRDNAKNTVYLQMNSLKPEDTAVYYCAAVNRGGYDYWGQGTQVTVSS | low polyreactivity
QVQLVESVGGLVQAGGSLRLSCAASGSIFVTNALGWYRQAPGKERELVAAISSGGNTNYADSVKGRFTISRDNAKNTVYLQMNSLKPEDTAVYDCAKDPDKVDYVDMDYWGQGTQVTVSS | low polyreactivity
QVQLVESGGGLVQAGGSLRLSCAASGRIFRYYAMGWYRQAPGKERELVAAIRWTAGSTYYADSVKGRFTISRDIAKNTVYLQMNSLKPEDTAVYYCATDVWKYGRYEYWGQGTQVTVSS | low polyreactivity
QFQLEESGGGLVQAGGSLRLSCAASGITFRRYTMGWYRQAPGKERELVATISLSDGNTYYADSVKGRFTISRDNAKNTVYYQMNSLKPEDTAVYYCNARHTWHQTYDYWGQGTQVTVSS | low polyreactivity
QVQLVESGGGLVQAGGSLRLSCAASGSTFLPYALGWYRQAPGKERELVAAIDWNGGRTYYADSVKGRFTISRDNAKNTVYLQMNSLKPEDTAVYYCAKLGRAAQGNYYWGQGTQVTVSS | high polyreactivity
QVQLVESGGGLVQAGGSLRLSCAASGSTFYHNVMGWYRQAPGKERELVASIYRGGSTYYADSVKGRFTISRDNAKNTVYLQMNSLKPEDTAVYYCAKEYKSLWWDGRMNYWGQGTQVTVSS | low polyreactivity
QVQLVESGGGLVQAGGSLRLSCAASGFTFVVNAMGWYRQAPGKERELVATIRSNGGSTYYADSVKGRFTISRDNAKNTVYLQMNSLKPEDTAVYYCAATATDTKYGYWGQGTQVTVSS | low polyreactivity
QVQLVESGGGLVQAGGSLRLSCAASGSTFTSYAMGWYRQAPGKERELVAAISKSGGSTYYADSVKGRFTISRDNAKNTVSLQMNSLKPEDSAVFYCAARYIVRSYSTSRFDYWGQGTQVTVSS | low polyreactivity
QVQLVESGGGLVQAGGSLRLSCAASGRIFVDYDMGWYRPAPGKERELVATISSGGSTNYADSVKGRFTISRDNAKNTVYLQMNSLKPEDTAVYYCAASSYSTSYIRGDYWGQGTQVTVSS | low polyreactivity
QVQLVESGGGLVQAGGSLRLSCAASGSTFDYYAMGWYRQAPGKERELVAAISRTGGRTYYADSVKGRFTISRDNAKNTVYLQMNSLKPEDTAVYYCNAVTRIGGGDYDYWGQGTQVTGSS | low polyreactivity
QVQLVESGAGLVQAGGSLRLSCAASGRIFDNYVMGWYRQAPGKERELVAAISSGGGTYYADSVKGRFTISRDNAKNTVYLQMNSLKPEDTAVYYCAKRRVYDRSFGRYDYWGQGTKVTVSS | low polyreactivity
QVQLVESGGGIVQAGGSLRLSCAASGSTFAYYAIGWYRQAPGKEREFVATITWTGGSTNYADSETGRFTISRDNAKNSVYLQMNSLKPEATAVYYSAASFVISYDYWGQGTQVTVSS | high polyreactivity
QVQLVESGGGLVQAGGSLRLSCAASGSIFGYNAMGWYRQAPGKERELVAAISLSGSSTYYADSVKGRFTISRDNAKNTVYLQMNSLKPEDTAVYYCAALYQWRRVFYTSYGYWGQGTQVTGSS | high polyreactivity
QVQLQENGGGLVQAGGSLRLSCAASGTILYSLGMGWYRQAPGKRREFVASITWGTTTNYAESVKGRFTISRDNAKNSVYPQMNSLKPEDTAVYYCAAPPFGDSSYHYWGQGTQVTVSS | low polyreactivity
QVQLVESGGGLVQAGGSLRLSCAASGSIFYYYAMGWYRQAPGKERELVAAISSTGGSTYYADSVKGRFTISRDNAKNTVYLQMNSLKPEDTAVYYCAAYHYGSNVFYFDYWGQGTQVTVSS | low polyreactivity
